# Results published in article PMC5497592 (Biochemistry, 2011).
# B1: HpUreI, the urea channel from Helicobacter pylori (natural protein)
# chain: MLGLVLLYVGIVLISNGICGLTKVDPKSTAVMNFFVGGLSIICNIVVITYSALHPTAPVEGAEDIAQVSHHLTSFYGPATGLLFGFTYLYAAINHTFGLDWRPYSWYSLFVAINTIPAAILSHYSDMLDDHKVLGITEGDWWAIIWLAWGVLWLTAFIENILKIPLGKFTPWLAIIEGILTAWIPAWLLFIQHWV
# Biological target: the molecule itself
# Experiment: cross-linking
protein,measurement,value
B1,stoichiometry N,3
